# Data published in US10472401B2, “Peptides and combination of peptides for use in immunotherapy against ovarian cancer and other cancers” (immatics biotechnologies GmbH, priority 2015, dated 2019).
# Legend:
# HLA-A*02:01 = HLA-A*02:01 (Homo sapiens, UniProt P04439, D140Y/D185E/D98H/E176V/E277Q/G131W/G231S/I119V/I121R/I166T/I218V/L300P/L318F/N151K/N90K/P208A/P217A/Q86G/Q94H/R138H/R169H/T345S); experiment: MHC binding assay (UV-ligand exchange, ELISA of stabilized MHC complexes); details: MHC class I binding score; binding to HLA-A*02:01 ranged by peptide exchange yield (UV-ligand exchange, ELISA)
# In short: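 Peptide-MHC complexes made by UV-ligand exchange, cleaving a UV-sensitive placeholder peptide and replacing it with the test peptide. Exchange yield measured by ELISA: streptavidin-captured monomers (diluted 100-fold, 1 h, 37 °C) detected with HRP anti-β2m and TMB, absorbance at 450 nm.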
# CD8+ T cells = experiment: In vitro immunogenicity: priming of CD8+ T cells with aAPCs loaded with peptide/MHC and anti-CD28, multimer staining; assay type: cell-based, human; details: for Wells positive [%]: HLA-A*02 restricted peptides, percentage of positive wells (among evaluable); for wells: positive wells
# Excerpt: In order to obtain information regarding the immunogenicity of the TUMAPs of the present invention, the inventors performed investigations using an in vitro T-cell priming assay based on repeated stimulations of CD8+ T cells with artificial antigen presenting cells (aAPCs) loaded with peptide/MHC complexes and anti-CD28 antibody.
# In order to perform in vitro stimulations by artificial antigen presenting cells loaded with peptide-MHC complex (pMHC) and anti-CD28 antibody, the inventors first isolated CD8+ T cells from fresh HLA-A*02 leukopheresis products via positive selection using CD8 microbeads (Miltenyi Biotec, Bergisch-Gladbach, Germany) of healthy donors obtained from the University clinics Mannheim, Germany, after informed consent.
# PBMCs and isolated CD8+ lymphocytes were incubated in T-cell medium (TCM) until use consisting of RPMI-Glutamax (Invitrogen, Karlsruhe, Germany) supplemented with 10% heat inactivated human AB serum (PAN-Biotech, Aidenbach, Germany), 100 U/ml Penicillin/100 μg/ml Streptomycin (Cambrex, Cologne, Germany), 1 mM sodium pyruvate (CC Pro, Oberdorla, Germany), 20 μg/ml Gentamycin (Cambrex). 2.5 ng/ml IL-7 (PromoCell, Heidelberg, Germany) and 10 U/ml IL-2 (Novartis Pharma, Nürnberg, Germany) were also added to the TCM at this step.
# Generation of pMHC/anti-CD28 coated beads, T-cell stimulations and readout was performed in a highly defined in vitro system using four different pMHC molecules per stimulation condition and 8 different pMHC molecules per readout condition.
# The purified co-stimulatory mouse IgG2a anti human CD28 Ab 9.3 (Jung et al., 1987) was chemically biotinylated using Sulfo-N-hydroxysuccinimidobiotin as recommended by the manufacturer (Perbio, Bonn, Germany). Beads used were 5.6 μm diameter streptavidin coated polystyrene particles (Bangs Laboratories, Illinois, USA).
# pMHC used for positive and negative control stimulations were A*0201/MLA-001 (peptide […] (SEQ ID NO. 664) from modified Melan-A/MART-1) and A*0201/DDX5-001 ([…] from DDX5, SEQ ID NO. 665), respectively.
# 800.000 beads/200 μl were coated in 96-well plates in the presence of 4×12.5 ng different biotin-pMHC, washed and 600 ng biotin anti-CD28 were added subsequently in a volume of 200 μl. Stimulations were initiated in 96-well plates by co-incubating […] CD8+ T cells with 2×10^5 washed coated beads in 200 μl TCM supplemented with 5 ng/ml IL-12 (PromoCell) for 3 days at 37° C. Half of the medium was then exchanged by fresh TCM supplemented with 80 U/ml IL-2 and incubating was continued for 4 days at 37° C. This stimulation cycle was performed for a total of three times. For the pMHC multimer readout using 8 different pMHC molecules per condition, a two-dimensional combinatorial coding approach was used as previously described (Andersen et al., 2012) with minor modifications encompassing coupling to 5 different fluorochromes. Finally, multimeric analyses were performed by staining the cells with Live/dead near IR dye (Invitrogen, Karlsruhe, Germany), CD8-FITC antibody clone SK1 (BD, Heidelberg, Germany) and fluorescent pMHC multimers. For analysis, a BD LSRII SORP cytometer equipped with appropriate lasers and filters was used. Peptide specific cells were calculated as percentage of total CD8+ cells. Evaluation of multimeric analysis was done using the FlowJo software (Tree Star, Oregon, USA). In vitro priming of specific multimer+ CD8+ lymphocytes was detected by comparing to negative control stimulations.
# Exemplary flow cytometry results after TUMAP-specific multimer staining for two peptides of the invention are shown in FIG. 3 together with corresponding negative controls.
Substance,Peptide exchange (HLA-A*02:01),Wells positive [%] (CD8+ T cells),"donors (CD8+ T cells; HLA class I peptides, positive donors)",wells (CD8+ T cells; HLA class I peptides)
652 (TLWYRAPEV; listed as Homo sapiens) [compound 652],,,++++ (> = 70% = ++++),
141 (YLDFSNNRL; listed as Homo sapiens) [compound 141],″++″ (≥20% = ++),″+″ (<20% = +),,
8 (FTLGNVVGMYL; listed as Homo sapiens) [compound 8],″++++″ (≥75% = ++++),″+″ (<20% = +),,
113 (GLLPTPLFGV; listed as Homo sapiens) [compound 113],″+++″ (≥50% = +++),″+″ (<20% = +),,
662 (KIQEILTQV; listed as Homo sapiens) [compound 662],,,,+ (<20% = +)
11 (KIFEMLEGV; listed as Homo sapiens) [compound 11],″+++″ (≥50% = +++),″+″ (<20% = +),,
663 (KIQEMQHFL; listed as Homo sapiens) [compound 663],,,,+ (<20% = +)
2 (SLLEADPFL; listed as Homo sapiens) [compound 2],″+++″ (≥50% = +++),″+″ (<20% = +),,
36 (YVLEDLEVTV; listed as Homo sapiens) [compound 36],″++″ (≥20% = ++),″+″ (<20% = +),,
143 (LLLDITPEI; listed as Homo sapiens) [compound 143],″++++″ (≥75% = ++++),″+″ (<20% = +),,
659 (ILFPDIIARA; listed as Homo sapiens) [compound 659],,,,+ (<20% = +)
38 (FLLEDDIHVS; listed as Homo sapiens) [compound 38],″+++″ (≥50% = +++),″+″ (<20% = +),,
79 (SLFIGEKAVLL; listed as Homo sapiens) [compound 79],″+++″ (≥50% = +++),″+″ (<20% = +),,
60 (SLTIDGIYYV; listed as Homo sapiens) [compound 60],″++++″ (≥75% = ++++),″++++″ (> = 70% = ++++),,
48 (ALAELYEDEV; listed as Homo sapiens) [compound 48],″+++″ (≥50% = +++),″+″ (<20% = +),,
3 (SLASKLTTL; listed as Homo sapiens) [compound 3],″++++″ (≥75% = ++++),″+″ (<20% = +),,
199 (ALQDVPLSSV; listed as Homo sapiens) [compound 199],″+++″ (≥50% = +++),″+″ (<20% = +),,
109 (IILSILEQA; listed as Homo sapiens) [compound 109],″++++″ (≥75% = ++++),,,
93 (LLQAIKLYL; listed as Homo sapiens) [compound 93],″++″ (≥20% = ++),,,
170 (RLQETLSAA; listed as Homo sapiens) [compound 170],″+++″ (≥50% = +++),,,
43 (VLSSLEINI; listed as Homo sapiens) [compound 43],″++″ (≥20% = ++),,,
135 (ALSEVDFQL; listed as Homo sapiens) [compound 135],″+++″ (≥50% = +++),,,
190 (FLSSLTETI; listed as Homo sapiens) [compound 190],″+++″ (≥50% = +++),,,

# Now from value to substance, other results behind:
Peptide exchange (HLA-A*02:01),Substance,Wells positive [%] (CD8+ T cells),"donors (CD8+ T cells; HLA class I peptides, positive donors)",wells (CD8+ T cells; HLA class I peptides)
″+++″ (≥50% = +++),443 (GLWEIENNPTV; listed as Homo sapiens) [compound 443],″+″ (<20% = +),,
″++++″ (≥75% = ++++),460 (AMLEKNYKL; listed as Homo sapiens) [compound 460],″+″ (<20% = +),,
″+++″ (≥50% = +++),384 (ILFANPNIFV; listed as Homo sapiens) [compound 384],″+″ (<20% = +),,
″++″ (≥20% = ++),499 (KIFDIDEAEEGV; listed as Homo sapiens) [compound 499],″+″ (<20% = +),,
″++″ (≥20% = ++),511 (FLDPYCSASV; listed as Homo sapiens) [compound 511],″+″ (<20% = +),,
″+++″ (≥50% = +++),247 (VLLPNDLLEKV; listed as Homo sapiens) [compound 247],″+″ (<20% = +),,
″++″ (≥20% = ++),603 (FLIEPEHVNTV; listed as Homo sapiens) [compound 603],″+″ (<20% = +),,
″+++″ (≥50% = +++),489 (KMWEELPEVV; listed as Homo sapiens) [compound 489],″+″ (<20% = +),,
″+++″ (≥50% = +++),474 (YLDPALELGPRNV; listed as Homo sapiens) [compound 474],,,
″++″ (≥20% = ++),377 (FLLDSSASV; listed as Homo sapiens) [compound 377],,,
″++″ (≥20% = ++),374 (FLLQQHLISA; listed as Homo sapiens) [compound 374],,,
″+++″ (≥50% = +++),475 (LLLNEEALAQI; listed as Homo sapiens) [compound 475],,,
″+++″ (≥50% = +++),436 (HLAEVSAEV; listed as Homo sapiens) [compound 436],,,
″+++″ (≥50% = +++),248 (FLFPNQYVDV; listed as Homo sapiens) [compound 248],,,
″++″ (≥20% = ++),233 (VLSETLYEL; listed as Homo sapiens) [compound 233],,,
″++″ (≥20% = ++),207 (GLTSTNAEV; listed as Homo sapiens) [compound 207],,,
″++″ (≥20% = ++),429 (GLVNDLARV; listed as Homo sapiens) [compound 429],,,
″++″ (≥20% = ++),273 (NLFQSVREV; listed as Homo sapiens) [compound 273],,,
″+++″ (≥50% = +++),332 (YLISELEAA; listed as Homo sapiens) [compound 332],,,
″++″ (≥20% = ++),538 (LLLAHIIAL; listed as Homo sapiens) [compound 538],,,
″+++″ (≥50% = +++),245 (SMIDDLLGV; listed as Homo sapiens) [compound 245],,,
″++++″ (≥75% = ++++),347 (SLFKHDPAAWEA; listed as Homo sapiens) [compound 347],,,
″+++″ (≥50% = +++),335 (YSLSSVVTV; listed as Homo sapiens) [compound 335],,,
″++″ (≥20% = ++),382 (ALQNYIKEA; listed as Homo sapiens) [compound 382],,,
″+++″ (≥50% = +++),224 (TLIDAQWVL; listed as Homo sapiens) [compound 224],,,
″+++″ (≥50% = +++),263 (LLVSNLDFGV; listed as Homo sapiens) [compound 263],,,
″++++″ (≥75% = ++++),620 (KLLNKIYEA; listed as Homo sapiens) [compound 620],,,
″+++″ (≥50% = +++),487 (LLINSVFHV; listed as Homo sapiens) [compound 487],,,
